The results in this text go back to PMC5407808.

The target of series [1] is HexA-6His (Photorhabdus luminescens TT01). The experiment in a line: SEC + other: dynamic light scattering; gel filtration of purified HexA-6His on a Superdex 200 column; DLS of the HexA peak fraction from gel filtration. A general note: Size exclusion chromatography separates by hydrodynamic size, large species first.
Series [2] relates to HexA-6His (Photorhabdus luminescens TT01). The experiment in a line: SPR. The note with it: 5' biotin on forward primer (PpcfA-Btn_fwd; position implied); SPR (Biacore T200, streptavidin chip, ~300 RU DNA): HBS-EP+ 10 mM HEPES pH 7.4, 150 mM NaCl, 3 mM EDTA, 0.05% Surfactant P20, 25 C …. For orientation: In SPR one partner is held on a chip, and binding of the other changes the refractive index at the surface.

In general, stoichiometry N refers to the number of molecules, sites or subunits per partner or assembly. Take HexA-6His (natural protein): the stoichiometry N in series [1] is 4.

As usually defined, the Kd is a measure of binding affinity in units of concentration. Low values mean higher affinity, high ones lower affinity. In turn, PpcfA promoter fragment (400 bp) had a Kd in series [2] of 1300 nM.
